# Data from FireProtDB (doi:10.1021/bi00252a018).
# B1: Subtilisin inhibitor, P01006 (parent)
# chain: MRNTGAGPSPSVSRPPPSAAPLSGAALAAPGDAPSALYAPSALVLTVGKGVSATTAAPERAVTLTCAPGPSGTHPAAGSACADLAAVGGDLNALTRGEDVMCPMVYDPVLLTVDGVWQGKRVSYERVFSNECEMNAHGSSVFAF
# Variants of: B1
# Details: Streptomyces albogriseolus; pH 2.9; Thermal; DSC; glycine 25 mM; reversible: yes (70-85%); structure 3SSI; whole UniProt chain shown
Variant,Tm [°C],"change of melting temperature, mutant - wild type (higher = more stable) [°C]"
MRNTGAGPSPSVSRPPPSAAPLSGAALAAPGDAPSALYAPSALVLTVGKGVSATTAAPERAVTLTCAPGPSGTHPAAGSACADLAAVGGDLNALTRGEDVMCPMVYDPVLLTVNGVWQGKRVSYERVFSNECEMNAHGSSVFAF,42.3,-2.17

# Same assay, conditions: Streptomyces albogriseolus; pH 2.94; Thermal; DSC; glycine 25 mM; reversible: yes (70-85%); structure 3SSI; whole UniProt chain shown
Variant,Tm [°C],"change of melting temperature, mutant - wild type (higher = more stable) [°C]"
MRNTGAGPSPSVSRPPPSAAPLSGAALAAPGDAPSALYAPSALVLTVGKGVSATTAAPERAVTLTCAPGPSGTHPAAGSACADLAAVGGDLNALTRGEDVMCPMVYDPVLLTVNGVWQGKRVSYERVFSNECEMNAHGSSVFAF,44.8,0.88

# Same assay, conditions: Streptomyces albogriseolus; pH 2.98; Thermal; DSC; glycine 25 mM; reversible: yes (70-85%); structure 3SSI; whole UniProt chain shown
Variant,Tm [°C],"change of melting temperature, mutant - wild type (higher = more stable) [°C]"
MRNTGAGPSPSVSRPPPSAAPLSGAALAAPGDAPSALYAPSALVLTVGKGVSATTAAPERAVTLTCAPGPSGTHPAAGSACADLAAVGGDLNALTRGEDVMCPMVYDPVLLTVNGVWQGKRVSYERVFSNECEMNAHGSSVFAF,45.1,-0.2

# Same assay, conditions: Streptomyces albogriseolus; pH 3.04; Thermal; DSC; glycine 25 mM; reversible: yes (70-85%); structure 3SSI; whole UniProt chain shown
Variant,Tm [°C],"change of melting temperature, mutant - wild type (higher = more stable) [°C]"
MRNTGAGPSPSVSRPPPSAAPLSGAALAAPGDAPSALYAPSALVLTVGKGVSATTAAPERAVTLTCAPGPSGTHPAAGSACADLAAVGGDLNALTRGEDVMCPMVYDPVLLTVNGVWQGKRVSYERVFSNECEMNAHGSSVFAF,46.3,-1.29

# Same assay, conditions: Streptomyces albogriseolus; pH 3.07; Thermal; DSC; glycine 25 mM; reversible: yes (70-85%); structure 3SSI; whole UniProt chain shown
Variant,Tm [°C],"change of melting temperature, mutant - wild type (higher = more stable) [°C]"
MRNTGAGPSPSVSRPPPSAAPLSGAALAAPGDAPSALYAPSALVLTVGKGVSATTAAPERAVTLTCAPGPSGTHPAAGSACADLAAVGGDLNALTRGEDVMCPMVYDPVLLTVNGVWQGKRVSYERVFSNECEMNAHGSSVFAF,47.3,-1.43

# Same assay, conditions: Streptomyces albogriseolus; pH 3.15; Thermal; DSC; glycine 25 mM; reversible: yes (70-85%); structure 3SSI; whole UniProt chain shown
Variant,Tm [°C],"change of melting temperature, mutant - wild type (higher = more stable) [°C]"
MRNTGAGPSPSVSRPPPSAAPLSGAALAAPGDAPSALYAPSALVLTVGKGVSATTAAPERAVTLTCAPGPSGTHPAAGSACADLAAVGGDLNALTRGEDVMCPMVYDPVLLTVNGVWQGKRVSYERVFSNECEMNAHGSSVFAF,50.2,-1.03

# Same assay, conditions: Streptomyces albogriseolus; pH 3.16; Thermal; DSC; glycine 25 mM; reversible: yes (70-85%); structure 3SSI; whole UniProt chain shown
Variant,Tm [°C],"change of melting temperature, mutant - wild type (higher = more stable) [°C]"
MRNTGAGPSPSVSRPPPSAAPLSGAALAAPGDAPSALYAPSALVLTVGKGVSATTAAPERAVTLTCAPGPSGTHPAAGSACADLAAVGGDLNALTRGEDVMCPMVYDPVLLTVNGVWQGKRVSYERVFSNECEMNAHGSSVFAF,49.9,-2.28

# Same assay, conditions: Streptomyces albogriseolus; pH 3.19; Thermal; DSC; glycine 25 mM; reversible: yes (70-85%); structure 3SSI; whole UniProt chain shown
Variant,Tm [°C],"change of melting temperature, mutant - wild type (higher = more stable) [°C]"
MRNTGAGPSPSVSRPPPSAAPLSGAALAAPGDAPSALYAPSALVLTVGKGVSATTAAPERAVTLTCAPGPSGTHPAAGSACADLAAVGGDLNALTRGEDVMCPMVYDPVLLTVNGVWQGKRVSYERVFSNECEMNAHGSSVFAF,51.4,-1.95

# Same assay, conditions: Streptomyces albogriseolus; pH 3.2; Thermal; DSC; glycine 25 mM; reversible: yes (70-85%); structure 3SSI; whole UniProt chain shown
Variant,Tm [°C],"change of melting temperature, mutant - wild type (higher = more stable) [°C]"
MRNTGAGPSPSVSRPPPSAAPLSGAALAAPGDAPSALYAPSALVLTVGKGVSATTAAPERAVTLTCAPGPSGTHPAAGSACADLAAVGGDLNALTRGEDVMCPMVYDPVLLTVNGVWQGKRVSYERVFSNECEMNAHGSSVFAF,51.3,-2.3

# Same assay, conditions: Streptomyces albogriseolus; pH 3.21; Thermal; DSC; glycine 25 mM; reversible: yes (70-85%); structure 3SSI; whole UniProt chain shown
Variant,Tm [°C],"change of melting temperature, mutant - wild type (higher = more stable) [°C]"
MRNTGAGPSPSVSRPPPSAAPLSGAALAAPGDAPSALYAPSALVLTVGKGVSATTAAPERAVTLTCAPGPSGTHPAAGSACADLAAVGGDLNALTRGEDVMCPMVYDPVLLTVNGVWQGKRVSYERVFSNECEMNAHGSSVFAF,51.3,-2.07

# Same assay, conditions: Streptomyces albogriseolus; pH 7; Thermal; DSC; phosphate 25 mM; reversible: yes (70-85%); structure 3SSI; whole UniProt chain shown
Variant,Tm [°C],"change of melting temperature, mutant - wild type (higher = more stable) [°C]"
MRNTGAGPSPSVSRPPPSAAPLSGAALAAPGDAPSALYAPSALVLTVGKGVSATTAAPERAVTLTCAPGPSGTHPAAGSACADLAAVGGDLNALTRGEDVMCPMVYDPVLLTVNGVWQGKRVSYERVFSNECEMNAHGSSVFAF,83.1,1.07

# Same assay, conditions: Streptomyces albogriseolus; pH 9.5; Thermal; DSC; glycine 25 mM; reversible: yes (70-85%); structure 3SSI; whole UniProt chain shown
Variant,Tm [°C],"change of melting temperature, mutant - wild type (higher = more stable) [°C]"
MRNTGAGPSPSVSRPPPSAAPLSGAALAAPGDAPSALYAPSALVLTVGKGVSATTAAPERAVTLTCAPGPSGTHPAAGSACADLAAVGGDLNALTRGEDVMCPMVYDPVLLTVNGVWQGKRVSYERVFSNECEMNAHGSSVFAF,82.6,1.88

# Same assay, conditions: Streptomyces albogriseolus; pH 9.75; Thermal; DSC; glycine 25 mM; reversible: yes (70-85%); structure 3SSI; whole UniProt chain shown
Variant,Tm [°C],"change of melting temperature, mutant - wild type (higher = more stable) [°C]"
MRNTGAGPSPSVSRPPPSAAPLSGAALAAPGDAPSALYAPSALVLTVGKGVSATTAAPERAVTLTCAPGPSGTHPAAGSACADLAAVGGDLNALTRGEDVMCPMVYDPVLLTVNGVWQGKRVSYERVFSNECEMNAHGSSVFAF,82.3,2.06
